From article PMC3141330 (Biochemistry, 2010)
Ends that are not written are not given here.

B1: His6-Hsp90β (full-length) (natural protein)
chain: not shown
B2: Hsp90 C-terminal peptide ([residues removed]-COO-), ITC (peptide)
peptide: GSSAAWTEEMPPLEGDDDTSRMEEVD-OH
B3: Hsp70 C-terminal peptide (GGGAPPSGGASSGPTIEEVD-COO-), ITC (peptide)
peptide: GGGAPPSGGASSGPTIEEVD-OH
B4: GST-CHIP fusion (pGST-hCHIP (1-303)) (enzyme, human, UniProt Q9UNE7 1-303, looked up)
chain: MKGKEEKEGGARLGAGGGSPEKSPSAQELKEQGNRLFVGRKYPEAAACYGRAITRNPLVAVYYTNRALCYLKMQQHEQALADCRRALELDGQSVKAHFFLGQCQLEMESYDEAIANLQRAYSLAKEQRLNFGDDIPSALRIAKKKRWNSIEERRIHQESELHSYLSRLIAAERERELEECQRNHEGDEDDSHVRAQQACIEAKHDKYMADMDELFSQVDEKRKKRDIPDYLCGKISFELMREPCITPSGITYDRKDIEEHLQRVGHFDPVTRSPLTQEQLIPNLAMKEVIDAFISENGWVEDY
B5: Carboxyl terminus of Hsc70-interacting protein (CHIP), full-length human, His6-tagged (enzyme, UniProt Q9UNE7 1-303, looked up)
chain: B4 chain

Experiments:
[1] = target: B5; assay: SEC
[2] = target: B5; assay: ITC
[3] = target: B1; assay: pull-down
[4] = target: His6-Hsp70 (full-length, wild type) (UniProt P0DMV8 1-641); assay: ITC
Chain of His6-Hsp70 (full-length, wild type) (P0DMV8 whole entry): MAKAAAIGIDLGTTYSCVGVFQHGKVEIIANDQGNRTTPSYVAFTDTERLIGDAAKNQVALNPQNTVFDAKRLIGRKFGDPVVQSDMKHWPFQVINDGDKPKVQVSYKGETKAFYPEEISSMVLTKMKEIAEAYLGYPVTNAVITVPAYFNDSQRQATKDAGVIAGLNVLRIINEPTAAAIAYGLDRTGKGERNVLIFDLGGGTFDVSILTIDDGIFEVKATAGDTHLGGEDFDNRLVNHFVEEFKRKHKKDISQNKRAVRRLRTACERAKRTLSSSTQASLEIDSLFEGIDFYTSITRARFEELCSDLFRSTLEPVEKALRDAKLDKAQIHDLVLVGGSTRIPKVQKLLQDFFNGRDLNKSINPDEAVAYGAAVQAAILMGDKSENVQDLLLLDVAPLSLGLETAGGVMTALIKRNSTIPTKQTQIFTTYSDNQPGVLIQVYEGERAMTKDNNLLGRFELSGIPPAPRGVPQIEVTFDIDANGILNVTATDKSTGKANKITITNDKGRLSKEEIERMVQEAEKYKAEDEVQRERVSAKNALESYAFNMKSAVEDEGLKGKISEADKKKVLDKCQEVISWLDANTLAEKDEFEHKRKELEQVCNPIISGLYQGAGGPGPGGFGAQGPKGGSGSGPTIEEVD

Binder: B1
- stoichiometry N [1]: ~2.1 Hsp90 monomers per CHIP monomer

Binder: B2
- stoichiometry N [2]: ~0.9 Hsp90 C-terminal peptide per CHIP monomer

Binder: B3
- stoichiometry N [2]: ~0.8 C-terminal Hsp70 peptide per CHIP monomer

Binder: B4
- binding result [3]: binds

Binder: B5
- Kd [4]: ~1 µM
